Measurements published in the Human Domainome abundance scans (Beltran et al. 2025).
± gives the uncertainty stated by the source.

B1: Arginine-glutamic acid dipeptide repeats protein, residues 502 to 543; numbered along this chain, Q9P2R6 (parent)
chain: LKGYACRHCFTTTSKDWHHGGRENILLCTDCRIHFKKYGELP

Variants of: B1
Experiment: abundance fitness (aPCA) (normalised: wild type 0, dead -1); higher = more abundant; growth selection in yeast, the domain comes from the species named
Conditions: Homo sapiens

Variant	abundance fitness
LKGYACRHCFTTTSKDWHHGGRCNILLCTDCRIHFKKYGELP	-0.159 ± 0.05
LKGYACRHCFTTTSKDWHHGGRMNILLCTDCRIHFKKYGELP	-0.187 ± 0.051
LKGYACRHCFTTTSKDWHHGGRDNILLCTDCRIHFKKYGELP	0.011 ± 0.054
LKGYACRHCFTTTSKDWHHGGRQNILLCTDCRIHFKKYGELP	-0.038 ± 0.043
LKGYACRHCFTTTSKDWHHGGRTNILLCTDCRIHFKKYGELP	-0.104 ± 0.043
LKGYACRHCFTTTSKDWHHGGRKNILLCTDCRIHFKKYGELP	-0.136 ± 0.051
LKGYACRHCFTTTSKDWHHGGRNNILLCTDCRIHFKKYGELP	-0.099 ± 0.061
LKGYACRHCFTTTSKDWHHGGRYNILLCTDCRIHFKKYGELP	-0.489 ± 0.4
LKGYACRHCFTTTSKDWHHGGRSNILLCTDCRIHFKKYGELP	-0.174 ± 0.038
LKGYACRHCFTTTSKDWHHGGRRNILLCTDCRIHFKKYGELP	-0.255 ± 0.036
LKGYACRHCFTTTSKDWHHGGRGNILLCTDCRIHFKKYGELP	-0.113 ± 0.038
LKGYACRHCFTTTSKDWHHGGRLNILLCTDCRIHFKKYGELP	-0.225 ± 0.035
LKGYACRHCFTTTSKDWHHGGRINILLCTDCRIHFKKYGELP	-0.322 ± 0.058
LKGYACRHCFTTTSKDWHHGGRVNILLCTDCRIHFKKYGELP	-0.338 ± 0.046
LKGYACRHCFTTTSKDWHHGGRHNILLCTDCRIHFKKYGELP	-0.185 ± 0.25
LKGYACRHCFTTTSKDWHHGGKENILLCTDCRIHFKKYGELP	0.071 ± 0.05
LKGYACRHCFTTTSKDWHHGGGENILLCTDCRIHFKKYGELP	-0.048 ± 0.033
LKGYACRHCFTTTSKDWHHGGCENILLCTDCRIHFKKYGELP	-0.067 ± 0.048
LKGYACRHCFTTTSKDWHHGGIENILLCTDCRIHFKKYGELP	-0.157 ± 0.07
LKGYACRHCFTTTSKDWHHGGFENILLCTDCRIHFKKYGELP	-0.058 ± 0.1

Variant	abundance fitness
LKGYACRHCFTTTSKDWHHGGAENILLCTDCRIHFKKYGELP	0.044 ± 0.035
LKGYACRHCFTTTSKDWHHGGEENILLCTDCRIHFKKYGELP	-0.02 ± 0.043
LKGYACRHCFTTTSKDWHHGGVENILLCTDCRIHFKKYGELP	-0.039 ± 0.049
LKGYACRHCFTTTSKDWHHGGHENILLCTDCRIHFKKYGELP	-0.221 ± 0.31
LKGYACRHCFTTTSKDWHHGGQENILLCTDCRIHFKKYGELP	0.029 ± 0.053
LKGYACRHCFTTTSKDWHHGGNENILLCTDCRIHFKKYGELP	0.008 ± 0.082
LKGYACRHCFTTTSKDWHHGGDENILLCTDCRIHFKKYGELP	-0.026 ± 0.041
LKGYACRHCFTTTSKDWHHGGTENILLCTDCRIHFKKYGELP	0.011 ± 0.042
LKGYACRHCFTTTSKDWHHGGPENILLCTDCRIHFKKYGELP	-0.027 ± 0.053
LKGYACRHCFTTTSKDWHHGGYENILLCTDCRIHFKKYGELP	0.113 ± 0.095
LKGYACRHCFTTTSKDWHHGGLENILLCTDCRIHFKKYGELP	-0.081 ± 0.043
LKGYACRHCFTTTSKDWHHGGMENILLCTDCRIHFKKYGELP	-0.172 ± 0.087
LKGYACRHCFTTTSKDWHHGGWENILLCTDCRIHFKKYGELP	-0.132 ± 0.039
LKGYACRHCFTTTSKDWHHGGSENILLCTDCRIHFKKYGELP	-0.055 ± 0.037
LKGYACRHCFTTTSKDWHHGGRENLLLCTDCRIHFKKYGELP	-0.05 ± 0.036
LKGYACRHCFTTTSKDWHHGGRENNLLCTDCRIHFKKYGELP	-0.298 ± 0.061
LKGYACRHCFTTTSKDWHHGGRENCLLCTDCRIHFKKYGELP	-0.258 ± 0.065
LKGYACRHCFTTTSKDWHHGGRENSLLCTDCRIHFKKYGELP	-0.185 ± 0.043
LKGYACRHCFTTTSKDWHHGGRENMLLCTDCRIHFKKYGELP	-0.15 ± 0.049
LKGYACRHCFTTTSKDWHHGGRENWLLCTDCRIHFKKYGELP	-0.073 ± 0.034

Variant	abundance fitness
LKGYACRHCFTTTSKDWHHGGRENYLLCTDCRIHFKKYGELP	-0.187 ± 0.11
LKGYACRHCFTTTSKDWHHGGRENELLCTDCRIHFKKYGELP	-0.048 ± 0.036
LKGYACRHCFTTTSKDWHHGGRENDLLCTDCRIHFKKYGELP	-0.16 ± 0.059
LKGYACRHCFTTTSKDWHHGGRENALLCTDCRIHFKKYGELP	-0.122 ± 0.035
LKGYACRHCFTTTSKDWHHGGRENFLLCTDCRIHFKKYGELP	-0.213 ± 0.082
LKGYACRHCFTTTSKDWHHGGRENQLLCTDCRIHFKKYGELP	-0.099 ± 0.047
LKGYACRHCFTTTSKDWHHGGRENVLLCTDCRIHFKKYGELP	-0.015 ± 0.038
LKGYACRHCFTTTSKDWHHGGRENHLLCTDCRIHFKKYGELP	-0.169 ± 0.044
LKGYACRHCFTTTSKDWHHGGRENTLLCTDCRIHFKKYGELP	-0.04 ± 0.083
LKGYACRHCFTTTSKDWHHGGRENPLLCTDCRIHFKKYGELP	-0.141 ± 0.066
LKGYACRHCFTTTSKDWHHGGRENGLLCTDCRIHFKKYGELP	-0.264 ± 0.039
LKGYACRHCFTTTSKDWHHGGRENILLCDDCRIHFKKYGELP	-0.151 ± 0.091
LKGYACRHCFTTTSKDWHHGGRENILLCADCRIHFKKYGELP	-0.067 ± 0.036
LKGYACRHCFTTTSKDWHHGGRENILLCCDCRIHFKKYGELP	-0.096 ± 0.054
LKGYACRHCFTTTSKDWHHGGRENIELCTDCRIHFKKYGELP	-0.167 ± 0.054
LKGYACRHCFTTTSKDWHHGGRENIHLCTDCRIHFKKYGELP	-0.386 ± 0.31
LKGYACRHCFTTTSKDWHHGGRENIRLCTDCRIHFKKYGELP	-0.2 ± 0.038
LKGYACRHCFTTTSKDWHHGGRENIILCTDCRIHFKKYGELP	0.004 ± 0.4
LKGYACRHCFTTTSKDWHHGGRENIYLCTDCRIHFKKYGELP	-0.403 ± 0.11
LKGYACRHCFTTTSKDWHHGGRENIPLCTDCRIHFKKYGELP	-0.21 ± 0.063
